Measurements as given in paper PMC3087855 (Nature structural & molecular biology, 2011).

Target: the molecule itself
Assay: crystal structure

B1: bacteriophage P22 portal protein core (residues 1-602) (domain or fragment, UniProt P26744 1-602, looked up)
chain: MADNENRLESILSRFDADWTASDEARREAKNDLFFSRVSQWDDWLSQYTTLQYRGQFDVVRPVVRKLVSEMRQNPIDVLYRPKDGARPDAADVLMGMYRTDMRHNTAKIAVNIAVREQIEAGVGAWRLVTDYEDQSPTSNNQVIRREPIHSACSHVIWDSNSKLMDKSDARHCTVIHSMSQNGWEDFAEKYDLDADDIPSFQNPNDWVFPWLTQDTIQIAEFYEVVEKKETAFIYQDPVTGEPVSYFKRDIKDVIDDLADSGFIKIAERQIKRRRVYKSIITCTAVLKDKQLIAGEHIPIVPVFGEWGFVEDKEVYEGVVRLTKDGQRLRNMIMSFNADIVARTPKKKPFFWPEQIAGFEHMYDGNDDYPYYLLNRTDENSGDLPTQPLAYYENPEVPQANAYMLEAATSAVKEVATLGVDTEAVNGGQVAFDTVNQLNMRADLETYVFQDNLATAMRRDGEIYQSIVNDIYDVPRNVTITLEDGSEKDVQLMAEVVDLATGEKQVLNDIRGRYECYTDVGPSFQSMKQQNRAEILELLGKTPQGTPEYQLLLLQYFTLLDGKGVEMMRDYANKQLIQMGVKKPETPEEQQWLVEAQQAKQG
modifications: selenomethionine derivatized (methionines replaced by selenomethionine)
stoichiometry N: 12
